Tested on: HhaI restriction endonuclease
Assay: cleavage_in_vitro
Conditions: 37 C 2 h

“CGGATAGCGCGGCGGGCGACAGCCCCCCGGATAACCCCGCCGAGGGAGGGGCGCTTGTAAAACCGAGCGGCG [lung cancer test locus, synthetic ssDNA oligonucleotide]” showed an activity (cycles (deltaCq test vs control locus)) (100% ssDNA, digestion impaired) of 7.51.
For “CGGATAGCGCGGCGGGCGACAGCCCCCCGGATAACCCCGCCGAGGGAGGGGCGCTTGTAAAACCGAGCGGCG (double strand) [lung cancer test locus, unmethylated genomic dsDNA (A-673)]”, the activity (cycles (deltaCq test vs control locus)) (100% dsDNA, no visible amplification of test locus after digestion) was > 18.

Source: US20230220458
